Laboratory results as given in patent US20260256870A1, “SKIN COMPOSITION” (Eaderm Co., Ltd., priority 2019, published 2026).

How the values were obtained:
COL17A1 = COL17A1 expression in human epidermal keratinocytes by high content imaging (HCS); type: cell-based; settings: Table 1; human epidermal keratinocytes, 48 hours after addition of reagents, fluorescence intensity per cell
Method: The present inventors further searched for substances that induce or maintain the expression of COL17A1. Human epidermal keratinocytes were seeded in 384-well plates, cultured for 48 hours after addition of reagents, immunostained with an anti-COL17A1 antibody and a fluorescently labeled secondary antibody, and then the fluorescence intensity per cell was detected using a high content imaging system (HCS: High Content Screening). In addition to cell counting with DAPI, the expression level of COL17A1 was quantified.

[1] = test system: human epidermal keratinocytes; assay: Colony formation assay using human epidermal keratinocytes; type: cell-based; settings: Table 1
Text: To test whether COL17A1-mediated SCD maintains clonal proliferation of epidermal stem cell clones, the present inventors used a colony formation assay, which is an in vitro assay said to be the gold standard for assessing the self-renewal ability of epidermal stem cells, including cells in the tail epidermis.

B1: Epidermal Growth Factor (EGF): growth factor (protein, UniProt P01133 23-1207, looked up)
Pro-epidermal growth factor: PQHWSCPEGTLAGNGNSTCVGPAPFLIFSHGNSIFRIDTEGTNYEQLVVDAGVSVIMDFHYNEKRIYWVDLERQLLQRVFLNGSRQERVCNIEKNVSGMAINWINEEVIWSNQQEGIITVTDMKGNNSHILLSALKYPANVAVDPVERFIFWSSEVAGSLYRADLDGVGVKALLETSEKITAVSLDVLDKRLFWIQYNREGSNSLICSCDYDGGSVHISKHPTQHNLFAMSLFGDRIFYSTWKMKTIWIANKHTGKDMVRINLHSSFVPLGELKVVHPLAQPKAEDDTWEPEQKLCKLRKGNCSSTVCGQDLQSHLCMCAEGYALSRDRKYCEDVNECAFWNHGCTLGCKNTPGSYYCTCPVGFVLLPDGKRCHQLVSCPRNVSECSHDCVLTSEGPLCFCPEGSVLERDGKTCSGCSSPDNGGCSQLCVPLSPVSWECDCFPGYDLQLDEKSCAASGPQPFLLFANSQDIRHMHFDGTDYGTLLSQQMGMVYALDHDPVENKIYFAHTALKWIERANMDGSQRERLIEEGVDVPEGLAVDWIGRRFYWTDRGKSLIGRSDLNGKRSKIITKENISQPRGIAVHPMAKRLFWTDTGINPRIESSSLQGLGRLVIASSDLIWPSGITIDFLTDKLYWCDAKQSVIEMANLDGSKRRRLTQNDVGHPFAVAVFEDYVWFSDWAMPSVMRVNKRTGKDRVRLQGSMLKPSSLVVVHPLAKPGADPCLYQNGGCEHICKKRLGTAWCSCREGFMKASDGKTCLALDGHQLLAGGEVDLKNQVTPLDILSKTRVSEDNITESQHMLVAEIMVSDQDDCAPVGCSMYARCISEGEDATCQCLKGFAGDGKLCSDIDECEMGVPVCPPASSKCINTEGGYVCRCSEGYQGDGIHCLDIDECQLGEHSCGENASCTNTEGGYTCMCAGRLSEPGLICPDSTPPPHLREDDHHYSVRNSDSECPLSHDGYCLHDGVCMYIEALDKYACNCVVGYIGERCQYRDLKWWELRHAGHGQQQKVIVVAVCVVVLVMLLLLSLWGAHYYRTQKLLSKNPKNPYEESSRDVRSRRPADTEDGMSSCPQPWFVVIKEHQDLKNGGQPVAGEDGQAADGSMQPTSWRQEPQLCGMGTEQGCWIPVSSDKGSCPQVMERSFHMPSYGTQTLEGGVEKPHSLLSANPLWQQRALDPPHQMELTQ
modifications: Pro-epidermal growth factor
COL17A1 expression level (control ratio) (COL17A1): ⊚ (one double circle (⊚) represents a 1.2-fold or greater increase)
Colony area (control ratio) [1]: ⊚⊚ (Two double circles (⊚⊚) in the control ratio of the colony number or colony area indicates an increase of 1.2-fold or more)
Colony number (control ratio) [1]: ⊚⊚ (Two double circles (⊚⊚) in the control ratio of the colony number or colony area indicates an increase of 1.2-fold or more)
